The record followed here is patent US20180346562A1 (ANAPTYSBIO, published 2018).

The target in assay [1] is T1, human IL-33 (human, UniProt O95760 112-270, limits assumed).
T1 sequence (looked up): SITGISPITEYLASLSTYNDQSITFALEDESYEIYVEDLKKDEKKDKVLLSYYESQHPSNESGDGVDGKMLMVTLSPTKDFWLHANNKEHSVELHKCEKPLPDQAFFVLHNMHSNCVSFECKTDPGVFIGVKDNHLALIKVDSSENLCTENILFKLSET
Nature of the assay: cell-based or functional assay.

Assay [2] has as its target T1, human IL-33. Nature of the assay: KinExA, solution equilibrium, beads coated with histidine-tagged human IL-33. As to the method: (§1) The ability of the APE4909 antibody described in Example 2 to interact with IL-33 was analyzed biophysically using a KINEXA™ 3200 biosensor platform from Sapidyne Instruments (Boise, Id.). Binding experiments for human and cynomolgus IL-33 (cynolL-33) were conducted as described below and were run twice independently. Conditions for the first experiment are shown non-parenthetically, while conditions for the second experiment are provided parenthetically.
Solid phase was prepared using azlactone-coated beads coated using a 50 μg/mL solution of histidine-tagged human IL-33. Binding experiments were performed in 1×PBS pH 7.4, 0.1% BSA. The APE4909 antibody at 10 pM (or 20 pM) final concentration was incubated with IL-33 at 200 pM to 3.4 fM (or 400 pM to 6.7 fM) final concentrations for 3 (or 4) days at 4° C. 5 mL (or 10 mL) of each mixture was applied to the beads coated with IL-33 at a rate of 0.25 mL/min for 1200 seconds (or 2400 seconds). Free antibody was detected with an ALEXAFLUOR™ 647-(Life Technologies, Carlsbad, Calif.) labeled donkey anti-human antibody. All data fit using standard KINEXA™ software.

Assay [3] deals with T2, cynomolgus IL-33 (cynomolgus, UniProt A0A2K5W3I1 112-269).
T2 construct: also called cynoIL-33; cIL-33
T2 sequence: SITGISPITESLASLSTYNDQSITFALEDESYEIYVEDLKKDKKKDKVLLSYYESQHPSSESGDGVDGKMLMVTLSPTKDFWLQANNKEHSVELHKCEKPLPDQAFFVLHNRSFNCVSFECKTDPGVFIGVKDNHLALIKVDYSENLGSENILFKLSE
Nature of the assay: KinExA solution-phase equilibrium titration: APE4909 at a fixed concentration incubated with cynomolgus IL-33 as titrant, free antibody captured on cIL-33-coated beads. How it is done: as §1
Solid phase was prepared using azlactone-coated beads coated using a 50 μg/mL solution of histidine-tagged human IL-33. Binding experiments were performed in 1×PBS pH 7.4, 0.1% BSA. The APE4909 antibody at 10 pM (or 20 pM) final concentration was incubated with IL-33 at 200 pM to 3.4 fM (or 400 pM to 6.7 fM) final concentrations for 3 (or 4) days at 4° C. […] Free antibody was detected with an ALEXAFLUOR™ 647-(Life Technologies, Carlsbad, Calif.) labeled donkey anti-human antibody. […]
Experiments were performed as described above for human IL-33, except that the APE4909 antibody at 20 pM and 100 pM final concentration was incubated with cIL-33 at 3 nM to 315 fM final concentrations for 24 hours at 4° C. […] Free antibody was detected with an ALEXAFLUOR™ 647-(Life Technologies, Carlsbad, Calif.) labeled donkey anti-human antibody. […]
For orientation: Kinetic exclusion samples the free partner from a solution-phase mixture.

For orientation: Kd means a measure of binding affinity in units of concentration. Higher therefore signals a looser complex.

“monomeric human ST2 protein (APE3906) (from UniProt Q01638 19-328) (receptor)”: the IC50 of inhibition of IL-33-mediated release of IL-5 in primary human basophils in assay [1] turned out to be 20 nM.

B1: APE4909 antibody (antibody, V domains shown)
VH: QVQLMQSGAEVKKPGASVKVSCKASGYTFTSYWMHWVRQAPGQGLEWMGTIYPRNSNTDYNQKFKARVTMTRDTSTSTVYMELSSLRSEDTAVYYCARPLYYYLTSPPTLFWGQGTLVTVSS
VL: DIQLTQSPSFLSASVGDRVTITCKASQDVGTAVAWYQQKPGKAPKLLIYWASTRHTGVPSRFSGSGSGTEFTLTISSLQPEDFATYYCQQAKTYPFTFGSGTKLEIKR
notes: the claims treat these entries as variable regions; It was detected with an anti-human antibody; also called APE04909; APE4909.02 (lot suffix)
In assay [2], B1 gave a Kd of 0.001 nM. In addition, in assay [1], the “IC50 of inhibition of IL-33-mediated release of IL-5 in primary human basophils” value is 2.2 nM and the “IC50 of inhibition of IL-33-mediated release of IL-9 from primary human basophils” value turned out to be 3 nM. This molecule showed a dissociation constant (Kd) in assay [3] of 0.035 nM.
